Reference: patent US20160160263

Tests used:
[1] = tested on: SNPYG-Y (SEQ ID NO: 23), MMP9 selective substrate
[2] = tested on: SNPYK-Y (SEQ ID NO: 21), MMP9 selective substrate
[3] = tested on: TIAH/LH, MMP2 selective substrate
[4] = tested on: RS-Q-G-(homoF)-YLY (SEQ ID NO: 71)
[5] = tested on: T1, YGRAAA (SEQ ID NO: 17), uPA selective substrate
T1 sequence: YGRAAA

MMP-9, sequence (chain, as listed by the source): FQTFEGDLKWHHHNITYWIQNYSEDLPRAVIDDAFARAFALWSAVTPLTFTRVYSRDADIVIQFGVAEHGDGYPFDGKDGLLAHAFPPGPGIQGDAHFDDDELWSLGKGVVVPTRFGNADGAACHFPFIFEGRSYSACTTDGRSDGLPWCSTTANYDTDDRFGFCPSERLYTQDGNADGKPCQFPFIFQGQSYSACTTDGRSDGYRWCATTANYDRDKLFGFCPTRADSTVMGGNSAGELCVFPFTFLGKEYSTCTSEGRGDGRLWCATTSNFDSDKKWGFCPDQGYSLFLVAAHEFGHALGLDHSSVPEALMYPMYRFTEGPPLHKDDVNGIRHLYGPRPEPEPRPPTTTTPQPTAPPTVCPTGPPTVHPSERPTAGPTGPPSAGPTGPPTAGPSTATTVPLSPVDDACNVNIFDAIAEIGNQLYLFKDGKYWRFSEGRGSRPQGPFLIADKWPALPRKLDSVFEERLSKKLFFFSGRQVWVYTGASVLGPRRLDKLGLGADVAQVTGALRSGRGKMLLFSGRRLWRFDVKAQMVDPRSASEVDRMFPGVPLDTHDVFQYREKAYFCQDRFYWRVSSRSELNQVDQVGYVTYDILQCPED

MMP-9
cleavage of ACPP substrate by protease (FAM/Cy5 ratiometric RACPP) [1]: MMP9 selective substrates
cleavage of ACPP substrate by protease (FAM/Cy5 ratiometric RACPP) [2]: MMP9 selective substrates
cleavage of ACPP substrate by protease [3]: selectively cleaved by MMP-2 versus 9 and 14

MT2-MMP
cleavage of substrate by protease [4]: Only RS-Q-G-(homoF)-YLY (SEQ ID NO: 71) shows significant cleavage by MT2-MMP

urokinase plasminogen activator (uPA)
cleavage of ACPP substrate by protease [5]: efficiently cleaved by uPA
